Test results as given in the supplement of paper PMC7877785.
± gives the uncertainty stated by the source.

Assay: self-splicing fitness, log relative to wild type (ln ratio); higher = more splicing; Tetrahymena group I intron in knt gene, E. coli kanamycin selection, DiMSum; sequences stand for … in CUCUCU…GGAGGGAAAAGUUAUCAGGCAUGCACCUGGUAGCUAGUCUUUAAACCAAUAGAUUGCAUCGGUUUAAAAGGCAAGACCGUCAAAUUGCGGGAAAGGGGUCAACAGCCGUUCAGUACCAAGUCUCAGGGGAAACUUUGAGAUGGCCUUGCAAAGGGUAUGGUAAUAAGCUGACGGACAUGGUCCUAACCACGCAGCCAAGUCCUAAGUCAACAGAUCUUCUGUUGAUAUGGAUGCAGUUCACAGACUAAAUGUCGGUCGGGGAAGAUGUAUUCUUCUCAUAAGAUAUAGUCGGACCUCUCCUUAAUGGGAGCUAGCGGAUGAAGUGAUGCAACACUGGAGCCGCUGGGAACUAAUUUGUAUGCGAAAGUAUAUUGAUUAGUUUUGGAGUACUCGUGGUCG
Summary of the method: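 Fitness was computed with DiMSum as the error-weighted combination of replicate fold changes, kanamycin versus none, each normalised to wild type. The library randomised all eight intron nucleotides of the P1ex region, with the intron placed in the knt kanamycin-resistance gene on pET-22b(+) in E. coli BL21(DE3). Six replicate transformations were grown overnight at 37°C or 30°C on LB agar with or without 25 μg/mL kanamycin, plus 100 μg/mL carbenicillin, 50 μM IPTG and 0.2% rhamnose. Pooled colonies were amplicon-sequenced on an Illumina HiSeq 2500.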

Sequence | self-splicing fitness (ln) (30 °C) | self-splicing fitness (ln) (37 °C)
AGCCAGCAAUAUUACGGUAA | -1.23 ± 0.069 | -0.323 ± 0.074
UUCCAGCAAUAUUACGAAGA | -0.997 ± 0.11 | -0.671 ± 0.1
GUCGAGCAAUAUUACGGGCA | -2.65 ± 0.4 | -0.9 ± 0.18
GCCCAGCAAUAUUACGACGU | 0.175 ± 0.053 | 0.441 ± 0.067
CGGUAGCAAUAUUACGUCCU | -0.294 ± 0.063 | 0.121 ± 0.08
AGGUAGCAAUAUUACGUAGU | -3.123 ± 0.017 | -1.62 ± 0.033
CUGUAGCAAUAUUACGGUAC | – | -2.59 ± 0.28
UUACAGCAAUAUUACGACUC | -2.69 ± 0.24 | -1.28 ± 0.2
CAUAAGCAAUAUUACGUGCU | -3.19 ± 0.3 | -1.89 ± 0.27
CUUCAGCAAUAUUACGUAGU | -4 ± 0.16 | -2.5 ± 0.19
CUAAAGCAAUAUUACGGCAC | -2.96 ± 0.22 | –
ACUUAGCAAUAUUACGCGAA | -1.74 ± 0.12 | -2.14 ± 0.2
AUGGAGCAAUAUUACGCUAG | – | -1.66 ± 0.25
GACAAGCAAUAUUACGAGGC | -2.4 ± 0.16 | -2.76 ± 0.32
AGACAGCAAUAUUACGCCCC | -0.804 ± 0.24 | 0.31 ± 0.26
UAGCAGCAAUAUUACGCCGU | -2.13 ± 0.13 | -1.24 ± 0.15
CCCUAGCAAUAUUACGCUGC | -3.47 ± 0.32 | –
CUAAAGCAAUAUUACGACUG | 0.0292 ± 0.098 | 0.417 ± 0.12
AGGAAGCAAUAUUACGCGGA | -2.32 ± 0.22 | -1.29 ± 0.17
UAGUAGCAAUAUUACGGAAA | – | -1.49 ± 0.3
GGCGAGCAAUAUUACGGAUC | -0.443 ± 0.053 | 0.039 ± 0.075
AGUGAGCAAUAUUACGUGCU | -1.86 ± 0.28 | –
CAGUAGCAAUAUUACGUUCG | 0.207 ± 0.07 | 0.209 ± 0.1
CAGCAGCAAUAUUACGCGGC | -4.03 ± 0.27 | -2.95 ± 0.18
UGUCAGCAAUAUUACGCUUC | – | -1.76 ± 0.21

Sequence | self-splicing fitness (ln) (30 °C) | self-splicing fitness (ln) (37 °C)
AGCAAGCAAUAUUACGUAGC | -3.34 ± 0.18 | -2.45 ± 0.19
CGAUAGCAAUAUUACGGACC | -1.78 ± 0.36 | -1.7 ± 0.29
AGGGAGCAAUAUUACGUGAG | -3.15 ± 0.26 | -2.56 ± 0.24
CCAGAGCAAUAUUACGCGUA | -1.99 ± 0.19 | -4.46 ± 0.38
AUUUAGCAAUAUUACGACAA | -1.36 ± 0.2 | -0.936 ± 0.22
UGUUAGCAAUAUUACGAUUA | -0.127 ± 0.093 | 0.424 ± 0.11
AAUCAGCAAUAUUACGAGUC | -2.05 ± 0.11 | -1.21 ± 0.11
ACAAAGCAAUAUUACGGCAC | -1.61 ± 0.079 | -0.954 ± 0.12
UGCGAGCAAUAUUACGGGCA | -2.84 ± 0.21 | -1.31 ± 0.18
GGUAAGCAAUAUUACGAUUC | -0.184 ± 0.14 | 0.0485 ± 0.14
UACAAGCAAUAUUACGCUCG | -1.26 ± 0.088 | 0.16 ± 0.11
AUCUAGCAAUAUUACGGUGA | -1.75 ± 0.11 | -0.608 ± 0.13
UGGUAGCAAUAUUACGUUUU | -3.96 ± 0.24 | -2.32 ± 0.16
CCCAAGCAAUAUUACGAUUG | -3.88 ± 0.2 | -2.78 ± 0.28
ACAAAGCAAUAUUACGUUAG | -2.73 ± 0.11 | -2.69 ± 0.17
UAAGAGCAAUAUUACGCAGC | -3.16 ± 0.22 | -3.49 ± 0.33
CUCAAGCAAUAUUACGGGGA | -2.01 ± 0.15 | -1.33 ± 0.17
UAUGAGCAAUAUUACGUCCG | – | -2.19 ± 0.43
CCGCAGCAAUAUUACGGAUC | – | -2.39 ± 0.41
CCCUAGCAAUAUUACGAGAU | -3.88 ± 0.22 | -2.91 ± 0.24
UGACAGCAAUAUUACGAAUA | -1.26 ± 0.13 | -0.589 ± 0.14
AAUAAGCAAUAUUACGCUUU | -3.49 ± 0.21 | -3.26 ± 0.23
UCUCAGCAAUAUUACGAACU | -1.75 ± 0.17 | -1.34 ± 0.21
CUCGAGCAAUAUUACGAGUA | -2.77 ± 0.24 | -2.75 ± 0.31
AUUAAGCAAUAUUACGGGAC | -3.35 ± 0.22 | -0.882 ± 0.17

Sequence | self-splicing fitness (ln) (30 °C) | self-splicing fitness (ln) (37 °C)
ACUUAGCAAUAUUACGGCUU | -0.359 ± 0.14 | -0.614 ± 0.19
GAGCAGCAAUAUUACGGGCG | -2.09 ± 0.14 | -0.811 ± 0.16
GAGUAGCAAUAUUACGCCUU | -3.2 ± 0.23 | -0.976 ± 0.24
CAUAAGCAAUAUUACGGCUU | -2.75 ± 0.2 | -3.07 ± 0.32
UUCCAGCAAUAUUACGAAUA | -1.24 ± 0.15 | -0.772 ± 0.16
UCUCAGCAAUAUUACGCUAG | -2.76 ± 0.25 | -1.8 ± 0.25
GUGUAGCAAUAUUACGCCGU | -1.25 ± 0.17 | -1.67 ± 0.36
UGGAAGCAAUAUUACGACGG | -0.691 ± 0.065 | -0.14 ± 0.084
GUCAAGCAAUAUUACGAAAU | -2.14 ± 0.13 | -0.595 ± 0.12
GAGCAGCAAUAUUACGUACA | -1.06 ± 0.22 | -0.116 ± 0.17
GUCGAGCAAUAUUACGCAGG | – | -3.05 ± 0.38
GUAAAGCAAUAUUACGUUUC | -2.07 ± 0.16 | -1.03 ± 0.22
GUAAAGCAAUAUUACGGCAA | -0.0595 ± 0.1 | -0.0616 ± 0.16
ACCCAGCAAUAUUACGACAC | -2.41 ± 0.091 | -0.292 ± 0.083
AGAUAGCAAUAUUACGGAAA | -3.51 ± 0.37 | -2.34 ± 0.25
UUACAGCAAUAUUACGCGAU | -2.28 ± 0.18 | -1.75 ± 0.16
UAACAGCAAUAUUACGAAGG | -1.76 ± 0.083 | -1.78 ± 0.12
UGACAGCAAUAUUACGACGA | -0.0144 ± 0.099 | 0.355 ± 0.13
CGAAAGCAAUAUUACGACCU | -0.917 ± 0.079 | -0.386 ± 0.11
UAUAAGCAAUAUUACGACUC | -1.51 ± 0.14 | -0.355 ± 0.14
AGCUAGCAAUAUUACGAACG | -0.938 ± 0.19 | -1.61 ± 0.18
UUACAGCAAUAUUACGUGAC | -3.7 ± 0.21 | -1.81 ± 0.16
UUUGAGCAAUAUUACGUUGA | – | -1.92 ± 0.33
AUGUAGCAAUAUUACGAACA | -0.529 ± 0.14 | 0.476 ± 0.15
GUAUAGCAAUAUUACGCAAC | -2.53 ± 0.37 | –

Sequence | self-splicing fitness (ln) (30 °C) | self-splicing fitness (ln) (37 °C)
AGAGAGCAAUAUUACGCGAC | -2.11 ± 0.34 | -1.87 ± 0.39
UCGAAGCAAUAUUACGUUAU | -4.01 ± 0.28 | -1.16 ± 0.15
ACUCAGCAAUAUUACGAUCG | -1.54 ± 0.074 | -0.221 ± 0.12
CAUUAGCAAUAUUACGGCGU | -2.25 ± 0.13 | -0.905 ± 0.13
CAUCAGCAAUAUUACGCGUG | -3.13 ± 0.095 | -2.16 ± 0.092
AUAUAGCAAUAUUACGAGGU | -3.66 ± 0.26 | -1.44 ± 0.15
GAGUAGCAAUAUUACGUAUU | -3.24 ± 0.16 | -1.79 ± 0.11
CGAUAGCAAUAUUACGGUGG | -1.03 ± 0.086 | -0.748 ± 0.09
UUGCAGCAAUAUUACGCCGG | -0.957 ± 0.075 | -0.103 ± 0.12
AUUGAGCAAUAUUACGCUGG | -2.76 ± 0.34 | -1.24 ± 0.25
GGAGAGCAAUAUUACGUCGG | -4.62 ± 0.39 | -3.75 ± 0.3
CCACAGCAAUAUUACGCACU | -3.41 ± 0.1 | -2.27 ± 0.12
ACAGAGCAAUAUUACGCGGC | -3.41 ± 0.3 | -2.18 ± 0.37
CCUGAGCAAUAUUACGUCGA | -3.41 ± 0.42 | -3.34 ± 0.33
ACGAAGCAAUAUUACGUUAU | -3.54 ± 0.13 | -1.1 ± 0.1
GGAAAGCAAUAUUACGAUCA | 0.0514 ± 0.081 | -0.282 ± 0.099
UUCAAGCAAUAUUACGAAAC | -2.77 ± 0.31 | -2.89 ± 0.35
AAUGAGCAAUAUUACGCGAA | -3.05 ± 0.18 | -2.7 ± 0.22
AUCUAGCAAUAUUACGCGAA | -2 ± 0.24 | -0.373 ± 0.14
CGCUAGCAAUAUUACGUGGC | -2.89 ± 0.2 | -2.72 ± 0.2
CCGUAGCAAUAUUACGCGGU | -3.13 ± 0.27 | -2.38 ± 0.3
GCACAGCAAUAUUACGUGUU | -3.75 ± 0.089 | -2.07 ± 0.085
CGUUAGCAAUAUUACGGACG | -4.39 ± 0.36 | -2.23 ± 0.25
UGCCAGCAAUAUUACGCUAA | -0.447 ± 0.084 | 0.0253 ± 0.095
